The values that follow come from PMC2172333 (The Journal of Cell Biology, 2004).

Holding throughout (experiment): pull-down
The target in one assay is T1, MBP-Bfa1 (yeast, UniProt P47113 1-574).
T1 sequence: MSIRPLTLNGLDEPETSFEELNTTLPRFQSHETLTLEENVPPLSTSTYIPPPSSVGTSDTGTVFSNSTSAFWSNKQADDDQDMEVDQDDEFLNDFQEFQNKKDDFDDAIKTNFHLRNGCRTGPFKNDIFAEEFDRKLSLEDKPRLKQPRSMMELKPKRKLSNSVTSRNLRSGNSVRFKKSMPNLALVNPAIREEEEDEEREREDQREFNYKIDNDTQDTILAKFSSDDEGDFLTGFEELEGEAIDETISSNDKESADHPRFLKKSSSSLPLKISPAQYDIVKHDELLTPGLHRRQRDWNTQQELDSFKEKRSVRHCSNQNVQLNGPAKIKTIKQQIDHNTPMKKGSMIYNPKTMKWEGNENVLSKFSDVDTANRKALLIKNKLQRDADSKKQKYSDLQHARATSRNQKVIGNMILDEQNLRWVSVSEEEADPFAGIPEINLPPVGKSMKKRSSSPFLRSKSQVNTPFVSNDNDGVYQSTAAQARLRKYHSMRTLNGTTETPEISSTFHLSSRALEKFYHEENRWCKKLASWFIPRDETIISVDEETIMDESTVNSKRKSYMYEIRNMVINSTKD

Assay [1] addresses T2, NH2-terminal domain of Net1 (Net1 1-600) (yeast, UniProt P47035 1-600).
T2 sequence: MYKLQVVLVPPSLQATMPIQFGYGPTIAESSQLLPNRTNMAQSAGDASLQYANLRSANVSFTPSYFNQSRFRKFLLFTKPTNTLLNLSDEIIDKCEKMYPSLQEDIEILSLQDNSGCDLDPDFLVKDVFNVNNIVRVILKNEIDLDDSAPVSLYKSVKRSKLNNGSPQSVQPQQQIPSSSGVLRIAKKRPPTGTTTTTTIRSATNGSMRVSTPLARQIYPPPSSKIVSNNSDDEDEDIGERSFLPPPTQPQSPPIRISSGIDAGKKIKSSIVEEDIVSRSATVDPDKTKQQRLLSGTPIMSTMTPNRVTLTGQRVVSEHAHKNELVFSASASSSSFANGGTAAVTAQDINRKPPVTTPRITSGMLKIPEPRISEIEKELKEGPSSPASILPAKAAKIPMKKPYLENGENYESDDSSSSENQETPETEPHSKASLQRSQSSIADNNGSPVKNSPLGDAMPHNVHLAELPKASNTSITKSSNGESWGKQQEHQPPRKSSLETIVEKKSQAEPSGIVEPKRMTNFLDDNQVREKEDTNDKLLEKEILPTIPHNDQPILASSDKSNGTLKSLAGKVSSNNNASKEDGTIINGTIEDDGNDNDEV

The target in another assay is T3, MBP-Bub2 (yeast, UniProt P26448 1-306).
T3 sequence: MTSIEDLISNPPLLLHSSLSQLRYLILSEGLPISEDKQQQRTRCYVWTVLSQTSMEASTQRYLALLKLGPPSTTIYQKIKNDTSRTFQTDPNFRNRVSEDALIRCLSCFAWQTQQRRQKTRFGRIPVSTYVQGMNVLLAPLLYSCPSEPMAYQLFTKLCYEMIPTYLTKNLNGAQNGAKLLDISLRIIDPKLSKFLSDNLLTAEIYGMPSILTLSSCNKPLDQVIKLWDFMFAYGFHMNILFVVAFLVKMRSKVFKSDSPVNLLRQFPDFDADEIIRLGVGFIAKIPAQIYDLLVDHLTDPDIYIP

B1: GST-Bub2 (natural protein)
chain: MTSIEDLISNPPLLLHSSLSQLRYLILSEGLPISEDKQQQRTRCYVWTVLSQTSMEASTQRYLALLKLGPPSTTIYQKIKNDTSRTFQTDPNFRNRVSEDALIRCLSCFAWQTQQRRQKTRFGRIPVSTYVQGMNVLLAPLLYSCPSEPMAYQLFTKLCYEMIPTYLTKNLNGAQNGAKLLDISLRIIDPKLSKFLSDNLLTAEIYGMPSILTLSSCNKPLDQVIKLWDFMFAYGFHMNILFVVAFLVKMRSKVFKSDSPVNLLRQFPDFDADEIIRLGVGFIAKIPAQIYDLLVDHLTDPDIYIP
Turning to B1, the binding result with MBP-Bfa1 is listed as “binds”.

B2: MBP-Cdc14 (natural protein)
chain: MRRSVYLDNTIEFLRGRVYLGAYDYTPEDTDELVFFTVEDAIFYNSFHLDFGPMNIGHLYRFAVIFHEILNDPENANKAVVFYSSASTRQRANAACMLCCYMILVQAWTPHQVLQPLAQVDPPFMPFRDAGYSNADFEITIQDVVYGVWRAKEKGLIDLHSFNLESYEKYEHVEFGDFNVLTPDFIAFASPQEDHPKGYLATKSSHLNQPFKSVLNFFANNNVQLVVRLNSHLYNKKHFEDIGIQHLDLIFEDGTCPDLSIVKNFVGAAETIIKRGGKIAVHCKAGLGRTGCLIGAHLIYTYGFTANECIGFLRFIRPGMVVGPQQHWLYLHQNDFREWKYTTRISLKPSEAIGGLYPLISLEEYRLQKKKLKDDKRVAQNNIEGELRDLTMTPPSNGHGALSARNSSQPSTANNGSNSFKSSAVPQTSPGQPRKGQNGSNTIEDINNNRNPTSHANRKVVIESNNSDDESMQDTNGTSNHYPKVSRKKNDISSASSSRMEDNEPSATNINNAADDTILRQLLPKNRRVTSGRRTTSAAGGIRKISGSIKK
Turning to B2, the binding result in assay [1] is “binds”.

B3: His6-Tem1 (natural protein)
chain: MATPSTGANNSIPAVRNQVEVQVGLVGDAQVGKTSLMVKYVQNIYDKEYTQTLGVNFLKRKVSIRSTDIIFSIMDLGGQREFINMLPIATVGSSVIIFLFDLTRPETLSSIKEWYRQAYGLNDSAIPILVGTKYDLLIDLDPEYQEQISRTSMKYAQVMNAPLIFCSTAKSINIQKIFKIALAKIFNLTLTIPEINEIGDPLLIYKHLGGQQHRHHNKSQDRKSHNIRKPSSSPSSKAPSPGVNT
B3: the binding result with MBP-Bub2 and with MBP-Bfa1 was “binds” each time.
